Test results as given in patent US20060233785A1, “Immunointeractive molecules and uses thereof” (priority 2001, published 2006).

B1: Recombinant Hev b 6 (rHev b 6) (protein, not shown: small tags and cut ends)
chain: EQCGRQAGGKLCPNNLCCSQWGWCGSTDEYCSPDHNCQSNCKDSGEGVGGGSASNVLATYHLYNSQDHGWDLNAASAYCSTWDANKPYSWRSKYGWTAFCGPVGAHGQSSCGKCLSVTNTGTGAKTTVRIVDQCSNGGLDLDVNVFRQLDTDGKGYERGHITVNYQFVDCGDSFNPLFSVMKSSVIN
B2: mutant rHev b 6 (cysteine to alanine substitution at amino acid 3) (protein, not shown: small tags and cut ends)
chain: EQAGRQAGGKLCPNNLCCSQWGWCGSTDEYCSPDHNCQSNCKDSGEGVGGGSASNVLATYHLYNSQDHGWDLNAASAYCSTWDANKPYSWRSKYGWTAFCGPVGAHGQSSCGKCLSVTNTGTGAKTTVRIVDQCSNGGLDLDVNVFRQLDTDGKGYERGHITVNYQFVDCGDSFNPLFSVMKSSVIN
B3: rHev b 5: recombinant latex allergen Hev b 5 (protein)
chain: ASVEVESAATALPKNETPEVTKAEETKTEEPAAPPASEQETADATPEKEEPTAAPAEPEAPAPETEKAEEVEKIEKTEEPAPEADQTTPEEKPAEPEPVAEEEPKHETKETETEAPAAPAEGEKPAEEEKPITEAAETATTEVPVEKTEE

Assays:
[1] = Chen Z et al., 1997; cited from earlier work
basophils = experiment: Basophil Activation Test; assay type: cell-based, human; conditions: non-latex allergic control subject N2
Procedure: FIG. 9 is a graphical representation of the basophil Activation Test on a latex allergic donor. Whole blood from a latex allergic, Hev b 6 sensitized subject was incubated with latex allergens. The cells were stained with FITC labelled anti-human IgE polyclonal antibodies and a PE labelled monoclonal anti-human CD63 antibody. Cells were analysed by flow cytometry defining basophils on the basis of scatter (A) and high IgE staining (B). The percentage of activated basophils expressing CD63 was determined (C).
The Basophil Activation Test was performed on whole blood from (A) non-latex allergic subject N2; (B) latex-allergic subject A7; (C) latex-allergic subject A8 and (D) latex-allergic subject A10. Antigens: latex glove extract (GE), hevein peptide (hevein), rHev b 6, mutant rHev b 6 (MU rHev b 6), sulphonated rHev b 6, (sul. rHev b 6), rHev b 5, KLH and house dust mite extract (HDM). All allergens were used at 10 μg/ml except for rHev b 6 and mutant rHev b 6 which were used at 0.1, 1 and 10 μg/ml. The cut-off for positive was set at the level of activated basophils after incubation in stimulation buffer alone (no antigen, horizontal line). A plus symbol (+) indicates antigen to which a subject has either a positive clinical history of allergy and/or a positive reading on an allergen-specific IgE ELISA.
A basophil activation assay based on flow cytometry was used to quantify the activation of basophils after incubation with various allergens. This assay was modified from Paris-Kohler A, Demoly P, Persi L, Lebel B, Bousquet J, Arnoux B. In vitro diagnosis of cypress pollen allergy by using cytofluorimetric analysis of basophils (Basotest). J Allergy Clin Immunol 2000; 105:339-45. Whole blood was collected in 6 ml heparinised vacutainers (Greiner). 100 μl aliquots were preincubated with stimulation buffer (20 mM Hepes, 133 mM NaCl, 5 mM KCl, 7 mM CaCl2, 3.5 mM MgCl2, 1 mg/ml BSA, 20 μl/ml heparin, pH 7.4) containing 2 ng/ml IL-3, for 10 min at 37° C., to increase the sensitivity of the assay. Samples were incubated for 20 min at 37° C. with 100 μl of stimulation buffer alone or stimulation buffer containing either rabbit anti-human IgE (Dako) at 1 in 500 dilution, 2 μM N-fMLP (Sigma, Mo, USA), crude allergen extracts, recombinant latex allergens or Keyhole Limpet Haemocyanin (KLH) (Sigma, Mo, USA). Basophil activation was stopped by incubating at 4° C. for 5 min. Normal goat serum (10 μl) was added to each tube to block non-specific binding of the detection antibody (goat anti-human IgE-FITC) and incubated for 10 min at 4° C. Samples were incubated with goat anti-human IgE-FITC (Caltag, Birmingham, Calif.) at a dilution of 1 in 2.5, and mouse anti-human CD63-R-Phycoerythrin (PE; Caltag, Birmingham, Calif.) at a dilution of 1 in 20, in a 20 μl volume of wash buffer (20 mM HEPES, 133 mM NaCl, 5 mM KCl, 0.27 mM EDTA, pH7.3). RBC were lysed by the addition of 2 ml FACS lysing solution (39 mM NH4Cl, 2.5 mM KHCO3, 0.2 mM EDTA) and incubation for 10 min at room temperature. Cells were centrifuged (250 g, 5 min at 4° C.), resuspended in 3 ml wash buffer, and centrifuged as before. Pellets were resuspended in 200 μl wash buffer, and analysed by flow cytometry (FACScalibur, Becton Dickinson) within 2 h of the experiment. 7AAD (Sigma, Mo, USA) was added to the samples 5 min prior to FACS analysis.

[2] = biological target: IgE from the sera of latex allergic, Hev b 6 sensitised subjects; experiment: inhibition ELISA of IgE binding to plate-coated rHev b 6, estimated
[3] = biological target: serum IgE of latex-allergic subject A8; experiment: inhibition ELISA of IgE binding to plate-coated rHev b 6, inhibitor at 125 µg/ml (FIG. 8D)
[4] = biological target: serum IgE of latex-allergic subject A7; experiment: inhibition ELISA of IgE binding to plate-coated rHev b 6, soluble inhibitor 0.0016-125 µg/ml (FIG. 8B)
[5] = biological target: serum IgE of latex-allergic subject A6; experiment: inhibition ELISA of IgE binding to plate-coated rHev b 6, soluble inhibitor 0.0016-125 µg/ml (FIG. 8C)
[6] = biological target: serum IgE of a latex-allergic, Hev b 5 positive subject; experiment: non-specific inhibition ELISA: serum preincubated with inhibitor, IgE binding to rHev b 5 read (data not shown)
[7] = biological target: IgE from the sera of latex allergic, Hev b 6 sensitised subjects; experiment: inhibition ELISA of IgE binding to plate-coated rHev b 6, ratio of the 30% inhibition concentrations

Molecule | basophil activation (basophils) | inhibitor concentration giving 30% inhibition of IgE binding [2] | percent inhibition (non-specific control) [6] | also measured
Hevein: 4.7 kDa hydrophilic protein which forms the N-terminus of pro-hevein (EQCGRQAGGKLCPNNLCCSQWGWCGSTDEYCSPDHNCQSNCKD) | – | – | – | patients with latex allergy reacting on skin testing [1]: 81%
hevein peptide: 43-mer hevein peptide synthesised according to the prohevein amino acid sequence by Mimotopes (EQCGRQAGGKLCPNNLCCSQWGWCGSTDEYCSPDHNCQSNCKD) | negligible | – | – | –
B1 | – | 0.01 µg/mL | < 20% | percent inhibition [3]: 100%; percent inhibition [4]: 100%; percent inhibition [5]: 100%
B2 | – | 125 µg/mL | < 20% | maximum percent inhibition [3]: 32%; fold more inhibitor required than rHev b 6 [7]: 12500 fold
B3 | negligible | – | – | –
